Measured values: US20170058021A1 (SHANGHAI PULMONARY HOSPITAL, published 2017)

Assays:
[1] = biological target: T1, human pulmonary surfactant protein A (hSP-A) (human, UniProt Q8IWL2 21-248); assay: ELISA with purified nanobody
T1 construct: Native material from ground human lung tissue (supernatant of the lysate, called 'purified hSP-A'); It may hold both SP-A1 and SP-A2 gene products; also called human lung SP-A

[2] = biological target: T1, human pulmonary surfactant protein A …; assay: indirect phage ELISA, plate coated with hSP-A, OD 450 nm

T1 sequence (Q8IWL2 21-248 limits assumed): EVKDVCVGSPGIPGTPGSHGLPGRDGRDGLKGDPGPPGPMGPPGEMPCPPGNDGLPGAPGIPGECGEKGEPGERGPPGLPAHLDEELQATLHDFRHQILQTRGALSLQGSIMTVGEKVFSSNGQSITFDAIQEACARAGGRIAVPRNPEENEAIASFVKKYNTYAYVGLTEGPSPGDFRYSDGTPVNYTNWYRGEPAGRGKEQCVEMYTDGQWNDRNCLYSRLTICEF

OD450 relative to negative control [1]	affinity value relative to negative control [2]	Binder
2 times the negative control	3 times the negative control	human lung tissue nanobody Nb17 (VHH, also called No. 17) VHH: MQAQLAVQLQLVESGGGLVQPGGSLRLACAASGFNLDDYADIGWFRQAPGKERERVLCITISDGTTYYEDSGKGRFSISTDIAKNTVFLQMDSLKAEDTAVYYCAGDPAPFCLYNTYVPRTWGQGTQVTVSSAHHSEDPGPRGLAAAGAPVPYPDPLEPRAA
2 times the negative control	3 times the negative control	human lung tissue nanobody Nb43 (VHH) VHH: MQAQLAVQLQLVESGGGLVQSGGSLRLSCAASGFTFNDYRMSWVRQAPGKGLEWVSDINSGGSSTYYADSVKGRFTVSRDNAKNTLYLQMNSLKPEDTAIYYCVALLGRGCSGLVQGAFGPWGQGTQVTVSSAHHSEDPGPRGLAAAGAPVPYPDPLEPRAA

More lines, now with the values behind:

Binder	OD450 relative to negative control [1]	affinity value relative to negative control [2]
human lung tissue nanobody Nb11 (VHH) VHH: MQAQLAGQLQLVESGGGLVQPGGSLRLSCTASKFHLDSYAVAWFRQTPGKEREAVSFINTSDDVTYFADSVKGRFTISRDNSKNTVYLQMNVLKPEDTSIYVCAAVRSPGPTGPSMQPMWVPDLYDYWGQGTQVTVSSAHHSEDPGPRGLAAAGAPVPYPDPLEPRAA	2 times the negative control	3 times the negative control
human lung tissue nanobody Nb15 (VHH) VHH: MQAQLAGQLQLVESGGGLVQPGGSLSVSCAVRGRDLDYYVIGWFRQAPGKEREGVSCINNSDDTTYYSDSVKGRFTISRDHAKNTVYLQMNNLKPEDTALYYCAADFDRLDFTVKAMCVMKFFYYWGQGTQVTVSSEPKTPKPQGPRGLAAAGAPVPYPDLEPRAA	2 times the negative control	3 times the negative control
